This note sets out measurements from patent US20260091061A1 (LEGEND BIOTECH IRELAND, published 2026).

Test [1] concerns the target T1, human GCC (human, UniProt P25092 24-1073).
T1 construct: whole, on cells; also called huGCC; Guanylyl cyclase C
Kind of test: screen of clone supernatants: cell based ELISA on HEK293T.huGCC.Luc cells and ELISA on recombinant human GCC protein (ACRO GUC-H52H5). (In an ELISA, binding on a coated surface is turned into a signal by an enzyme label.)

The target in a further test is T2, huGCC-his (human, UniProt P25092 24-430, limits assumed).
T2 construct: Soluble his-tagged human GCC used as analyte on Biacore; also called GCC (SPR analyte); not shown: his tag
T2 sequence (P25092 24-430 limits assumed): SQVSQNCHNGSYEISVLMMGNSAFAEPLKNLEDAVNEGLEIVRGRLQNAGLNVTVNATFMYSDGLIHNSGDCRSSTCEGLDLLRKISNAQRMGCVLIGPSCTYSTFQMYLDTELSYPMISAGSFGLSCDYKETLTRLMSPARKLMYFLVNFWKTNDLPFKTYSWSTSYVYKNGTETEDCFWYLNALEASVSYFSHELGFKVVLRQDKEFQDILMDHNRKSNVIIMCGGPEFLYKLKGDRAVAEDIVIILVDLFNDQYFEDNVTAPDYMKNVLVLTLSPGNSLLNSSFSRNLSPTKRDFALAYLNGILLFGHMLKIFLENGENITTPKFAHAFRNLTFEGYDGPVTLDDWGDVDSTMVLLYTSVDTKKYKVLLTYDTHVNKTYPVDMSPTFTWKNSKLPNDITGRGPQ
In words: SPR, Biacore T200; antibody captured via Fc, GCC as analyte; 1:1 model.

The target in the next test is T3, mouse GCC (mouse, UniProt Q3UWA6 20-1072).
T3 construct: whole, on cells; also called mGCC; HEK293T.mGCC.Luc cells
T3 sequence (looked up): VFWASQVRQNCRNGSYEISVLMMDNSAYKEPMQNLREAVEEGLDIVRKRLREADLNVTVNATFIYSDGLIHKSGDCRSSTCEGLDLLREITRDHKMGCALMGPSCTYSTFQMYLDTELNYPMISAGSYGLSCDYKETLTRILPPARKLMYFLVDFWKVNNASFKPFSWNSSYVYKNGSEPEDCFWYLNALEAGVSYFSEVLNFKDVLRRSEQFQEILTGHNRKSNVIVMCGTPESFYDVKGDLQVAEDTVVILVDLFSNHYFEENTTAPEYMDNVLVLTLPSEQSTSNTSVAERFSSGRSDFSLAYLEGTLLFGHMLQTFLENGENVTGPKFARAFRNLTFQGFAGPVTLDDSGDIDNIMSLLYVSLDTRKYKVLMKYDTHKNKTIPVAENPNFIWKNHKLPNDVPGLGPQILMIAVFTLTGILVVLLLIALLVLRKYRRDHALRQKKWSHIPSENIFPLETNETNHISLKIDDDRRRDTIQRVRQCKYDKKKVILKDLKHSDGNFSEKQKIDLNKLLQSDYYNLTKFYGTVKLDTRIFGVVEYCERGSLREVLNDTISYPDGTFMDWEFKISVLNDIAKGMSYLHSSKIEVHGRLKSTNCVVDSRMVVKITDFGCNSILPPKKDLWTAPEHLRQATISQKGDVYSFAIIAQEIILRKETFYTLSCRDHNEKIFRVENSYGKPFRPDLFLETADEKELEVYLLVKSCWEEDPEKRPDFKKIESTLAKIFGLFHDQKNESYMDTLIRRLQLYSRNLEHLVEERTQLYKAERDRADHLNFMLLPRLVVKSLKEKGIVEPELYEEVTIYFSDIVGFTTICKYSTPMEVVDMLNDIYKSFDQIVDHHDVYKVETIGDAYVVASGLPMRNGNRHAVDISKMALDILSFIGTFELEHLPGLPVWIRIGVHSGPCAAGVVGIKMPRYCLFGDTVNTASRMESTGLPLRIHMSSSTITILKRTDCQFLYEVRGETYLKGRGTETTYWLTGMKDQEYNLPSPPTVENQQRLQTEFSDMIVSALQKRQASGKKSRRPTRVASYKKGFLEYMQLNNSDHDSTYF
In words: flow cytometry on HEK293T.mGCC.Luc cells, PE goat anti-mouse IgG secondary; Binding % = cells with antibody bound / total cells.

For test [2], the target named is T1, human GCC. Kind of test: flow cytometry on HEK293T.huGCC.Luc cells, percentage of binding. In general terms: A flow cytometer gives signals particle by particle.

As usually defined, the Kd is the free concentration of one partner at which half of the binding sites on the other are occupied at equilibrium, for simple one-to-one binding. For orientation: EC50 means the concentration needed to bring the measured effect to its halfway point. A higher EC50 goes with weaker potency.

T1 sequence (P25092 24-1073): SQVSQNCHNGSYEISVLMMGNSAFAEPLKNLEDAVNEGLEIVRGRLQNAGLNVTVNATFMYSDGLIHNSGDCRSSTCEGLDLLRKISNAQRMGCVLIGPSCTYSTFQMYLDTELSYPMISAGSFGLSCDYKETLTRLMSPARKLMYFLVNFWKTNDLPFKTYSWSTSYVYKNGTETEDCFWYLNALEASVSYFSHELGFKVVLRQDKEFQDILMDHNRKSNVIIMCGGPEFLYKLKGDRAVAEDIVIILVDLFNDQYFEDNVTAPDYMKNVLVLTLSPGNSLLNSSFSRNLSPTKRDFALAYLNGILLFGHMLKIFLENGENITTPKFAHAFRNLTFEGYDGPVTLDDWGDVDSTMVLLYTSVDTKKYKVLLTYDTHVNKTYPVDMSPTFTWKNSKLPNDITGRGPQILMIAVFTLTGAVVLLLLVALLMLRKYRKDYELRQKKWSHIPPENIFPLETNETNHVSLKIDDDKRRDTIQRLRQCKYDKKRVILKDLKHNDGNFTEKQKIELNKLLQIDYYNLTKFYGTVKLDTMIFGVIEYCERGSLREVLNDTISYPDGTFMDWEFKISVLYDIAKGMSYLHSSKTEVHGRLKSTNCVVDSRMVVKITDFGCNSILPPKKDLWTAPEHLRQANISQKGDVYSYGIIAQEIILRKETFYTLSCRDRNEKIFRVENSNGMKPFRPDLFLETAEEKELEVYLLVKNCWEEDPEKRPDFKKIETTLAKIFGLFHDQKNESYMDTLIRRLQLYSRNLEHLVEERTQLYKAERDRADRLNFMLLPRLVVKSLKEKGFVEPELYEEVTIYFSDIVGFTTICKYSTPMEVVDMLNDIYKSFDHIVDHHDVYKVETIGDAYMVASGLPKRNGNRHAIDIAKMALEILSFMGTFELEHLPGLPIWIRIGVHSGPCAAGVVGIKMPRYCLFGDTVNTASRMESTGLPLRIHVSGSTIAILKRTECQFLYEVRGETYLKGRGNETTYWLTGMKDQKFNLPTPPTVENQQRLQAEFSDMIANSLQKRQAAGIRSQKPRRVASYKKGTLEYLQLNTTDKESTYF

B1: VHHC0694 (VHH)
VHH: QVQLVESGGGSVQSGGSLRLSCAASGYTYSRYCMAWFRQAPGKEREGVAVIDPDGSTTYADSVKGRFTISQDNAKNTLYLQMNSLKPEDTAMYYCAADPRVWYGGTCRAGRTDFSNWGQGTQVTVSS
notes: Screened as E. coli culture supernatant and detected with an anti-cmyc antibody
Turning to B1, the binding result in the test with human GCC [1] is “binds”.

B2: VHHC0464 (VHH)
VHH: QVQLQESGGGLVQAGGSLRLSCLASGLAFPSYAMGWFRQAPGKEREWVSCVTRSGGDTLYADSAKGRFAISRDNAKNTLYLQMNSLKPEDTAMYYCAAALFCANLRRNKDNYWGQGTQVTVSS
notes: as for B1
Turning to B2, the binding result with human GCC [1] is on record as “binds”.

B3: VHHC0467 (VHH)
VHH: QMQLVESGGGLVQAGGSLRLSCIASGLTFPTYAMGWFRQAPGKEREWVSCVTRSGGDTLYADSAKGRFTISRDNAKNTLFLQMNSLKPEDTAMYYCVAALFCHNLRLNTGNYWGQGTQVTVSS
notes: as for B1
As to B3, the binding result with human GCC [1] is “binds”.

B4: VHHC0708H2-mIgG1Fc (Fc fusion)
chain: EVQLVESGGGVVQPGGSLRLSCAASGYTYSRYCMGWVRQAPGKEREGVALIASDGTTTYADSVKGRFTISQDNSKNTLYLQMNSLRAEDTAVYYCAADAVNWYGSICASMIRRKNPAFGYWGQGTLVTVSSVPRDCGCKPCICTVPEVSSVFIFPPKPKDVLTITLTPKVTCVVVDISKDDPEVQFSWFVDDVEVHTAQTQPREEQFNSTFRSVSELPIMHQDWLNGKEFKCRVNSAAFPAPIEKTISKTKGRPKAPQVYTIPPPKEQMAKDKVSLTCMITDFFPEDITVEWQWNGQPAENYKNTQPIMNTNGSYFVYSKLNVQKSNWEAGNTFTCSVLHEGLHNHHTEKSLSHSPGK
notes: also called humanized chimeric antibody VHHC0708H2-mIgG1Fc
In turn, B4 returned a Kd in the test with huGCC-his of 1.02 nM.

B5: VHHC0524 (VHH)
VHH: QVQLAESGGGSVQSGGSLRLSCAASGYTYSRYCMAWFRQAPGKEREGVAVIVSDNDGSATYADSVKGRFTISQDNAKNMLYLQMNSLKPEDTAMYYCAADPRVWYGGTCRAGRTDFLYWGQGTQVTVSS
notes: as for B1
B5: in the test with human GCC [1], the binding result is “binds”.

B6: VHHC0494 (VHH)
VHH: QVHLVESGGGSVQSGGSLRLSCATSASPYSMHCMGWFRQAPGKARERVASILNAGSTTYADSVKGRFTISRDNAEKTLYLQMNSLKPEDTGTYYCAARPDAGRWRSACTTELDFGYWGQGTQVTVSS
notes: as for B1
As to B6, the binding result with human GCC [1] is recorded as “binds”.

B7: VHHC0708 (VHH)
VHH: QVQLEESGGGSVQSGGSLRLSCAASGYTYSRYCMGWVRQAPGKEREGVALIASDGTTTYADSVKGRFTISQDNAKNTLYLQMNSLKPEDTAMYYCAADAVNWYGSICASMIRRKNPAFGYWGRGTQVTVSS
notes: as for B1
Consider B7, for which the binding result with human GCC [1] was “binds”.

B8: VHHA2322 (VHH)
VHH: QVHLVESGGGSVQSGGSLRLSCAASGYTGRRLCRGWFRQTPGKEREGVATITLSGRASYADSVKGRFTISQDNAKNTLYLQMNGLKPEDTAMYFCAEVRSADAEWLNPLKCHPDRLGLAGVDWGQGTQVTVSS
notes: as for B1
With B8, in the test with human GCC [1], the binding result is given as “binds”.

B9: VHHA2322H2-mIgG1Fc (Fc fusion)
chain: QVHLVESGGGVVQPGRSLRLSCAASGYTGRRLCRGWFRQAPGKEREGVATITLSGRASYADSVKGRFTISQDNSKNTLYLQMNSLRAEDTAVYFCAEVRSADAEWLNPLKCHPDRLGLAGVDWGQGTTVTVSSVPRDCGCKPCICTVPEVSSVFIFPPKPKDVLTITLTPKVTCVVVDISKDDPEVQFSWFVDDVEVHTAQTQPREEQFNSTFRSVSELPIMHQDWLNGKEFKCRVNSAAFPAPIEKTISKTKGRPKAPQVYTIPPPKEQMAKDKVSLTCMITDFFPEDITVEWQWNGQPAENYKNTQPIMNTNGSYFVYSKLNVQKSNWEAGNTFTCSVLHEGLHNHHTEKSLSHSPGK
notes: also called humanized chimeric antibody VHHA2322H2-mIgG1Fc
Take B9: the binding result with mouse GCC is “no binding (tested: 1000 nM)”. Besides, the Kd with huGCC-his amounted to 1.65 nM. This molecule also registered an EC50 in the test with human GCC [2] of 0.0192 nM.

B10: VHHC0694H2-mIgG1Fc (Fc fusion)
chain: QVQLVESGGGVVQPGRSLRLSCAASGYTYSRYCMAWFRQAPGKEREGVAVIDPDGSTTYADSVKGRFTISQDNSKNTLYLQMNSLRAEDTAVYYCAADPRVWYGGTCRAGRTDFSNWGQGTMVTVSSVPRDCGCKPCICTVPEVSSVFIFPPKPKDVLTITLTPKVTCVVVDISKDDPEVQFSWFVDDVEVHTAQTQPREEQFNSTFRSVSELPIMHQDWLNGKEFKCRVNSAAFPAPIEKTISKTKGRPKAPQVYTIPPPKEQMAKDKVSLTCMITDFFPEDITVEWQWNGQPAENYKNTQPIMNTNGSYFVYSKLNVQKSNWEAGNTFTCSVLHEGLHNHHTEKSLSHSPGK
notes: also called humanized chimeric antibody VHHC0694H2-mIgG1Fc
With B10, the binding result with mouse GCC is given as “no binding (tested: 1000 nM)”. This molecule had a Kd with huGCC-his of 1.34 nM. The same molecule registered an EC50 in the test with human GCC [2] of 0.0315 nM.

B11: VHHA2493 (VHH)
VHH: QMQLVESGGGSVQSGGSLRLSCATNEPPYSIYCMAWFRQAPGKARERVAAILNAGGTRYADSVKGRFTISRDNAAKTFALQMNSLKPEDTGTYYCATRADAGRWGSACTTELDFGNWGQGTQVTVSS
notes: as for B1
For B11, in the test with human GCC [1], the binding result was “binds”.

B12: VHHC0806 (VHH)
VHH: QVHLVESGGGSVQSGGSLRLSCAGSGYTYSTHCMGWFRQAPGKERERVATIDKDGRTSHYADAVKGRFTISQDNAKNTLYLQMSSLNPEDTAMYYCAAAEHRGAWCPLWDRSAPLLAHIHWGQGTQVTVSS
notes: as for B1
B12: the binding result in the test with human GCC [1] is recorded as “binds”.
